Reference: patent publication US7211422B2, “Polypeptide having α-isomaltosylglucosaccharide synthase activity” (Kabushiki Kaisha Hayashibara Seibutsu Kagaku Kenkyujo, priority 2001, dated 2007)

What was measured:
[1] = Test on reducing-power formation; assay type: biochemical; conditions: 1% (w/v) maltotetraose, 0.25 unit/g substrate, 35° C., pH 6.0 (pH 8.4 for A19)
Experimental: The following test was carried out to study whether the polypeptide having α-isomaltosylglucosaccharide-forming enzyme activity had the ability of forming reducing-power or not. To a 1% (w/v) aqueous solution of maltotetraose as a substrate was added 0.25 unit/g substrate, d.s.b., of either of purified polypeptide specimen of α-isomaltosylglucosaccharide-forming enzyme from Bacillus globisporus C11 obtained by the method in Experiment 1-3, Bacillus globisporus N75 obtained by the method in Experiment2-3, or Arthrobacter globiformis A19 obtained by the method in Experiment 3-3, and incubated at 35° C. and at pH 6.0, except that pH 8.4 was used for the enzyme from Arthrobacter globiformis A19. During the reaction, a portion of each reaction mixture was sampled at prescribed time intervals and measured for reducing power after keeping at 100° C. for 10 minutes to stop the enzymatic reaction. Before and after the enzymatic reaction, the reducing sugar content and total sugar content were respectively quantified by the Somogyi-Nelson method and anthrone-sulfuric acid method. The percentage of forming reducing power was calculated by the following equation: Percentage of forming reducing power (%)=(AR/AT−BR/BT)×100 Equation: • AR: Reducing sugar content after enzymatic reaction. • AT: Total sugar content after enzymatic reaction. • BR: Reducing sugar content before enzymatic reaction. • BT: Total sugar content before enzymatic reaction.

[2] = Isoelectric point by isoelectrophoresis (2% ampholine gel); assay type: physicochemical; conditions: gel containing 2% (w/v) ampholine
From the text: Purified specimens of the polypeptide having α-isomaltosylglucosaccharide-forming enzyme activity from Bacillus globisporus C11 obtained by the method in Experiment 1-3, Bacillus globisporus N75 obtained by the method in Experiment 2–3, and Arthrobacter globiformis A19 obtained by the method in Experiment 3-3 were subjected to isoelectrophoresis using a gel containing 2% (w/v) ampholine commercialized by Amersham Biosciences K. K., Tokyo, Japan (old name, Amersham Pharmacia Biotech), and then measured pHs of protein bands and gel to determine their isoelectric points.

[3] = Effect of temperature and pH on α-isomaltosylglucosaccharide-forming enzyme activity; assay type: biochemical; conditions: for Optimum temperature: pH 6.0 for 60 minutes; for Optimum pH: incubated at 35° C. for 60 minutes
Experimental: The two types of enzymatic activities described above were measured as following. The activity of α-isomaltosylglucosaccharide-forming enzyme was measured by the following assay: A substrate solution was prepared by dissolving maltotriose in 100 mM acetate buffer (pH 6.0) to give a concentration of 2% (w/v). A reaction mixture was prepared by mixing 0.5 ml of the substrate solution and 0.5 ml of an enzyme solution, and incubated at 35° C. for 60 minutes. After stopping the reaction by boiling for 10 minutes, the amount of maltose formed in the reaction mixture was determined by high-performance liquid chromatography (HPLC). One unit of α-isomaltosylglucosaccharide-forming activity was defined as the amount of the enzyme that forms one μmole of maltose per minute under the above conditions. HPLC was carried out using “SHODEX KS-801 column”, Showa Denko K. K., Tokyo, Japan, at a column temperature of 60° C. and a flow rate of 0.5 ml/minutes of water, and using “RI-8012”, a differential refractometer commercialized by Tosoh Corporation, Tokyo, Japan.
The effect of temperature and pH on the α-isomaltosylglucosaccharide-forming enzyme activity was examined in accordance with the assay for the α-isomaltosylglucosaccharide-forming enzyme activity under various temperature and pH conditions. The effect of temperature was conducted in the presence or absence of 1 mM Ca^2+. […] The optimum temperature of the polypeptide having α-isomaltosylglucosaccharide-forming enzyme activity from a strain C11 was about 45° C. (in the absence of Ca^2+) and about 50° C. (in the presence of Ca^2+) when incubated at pH 6.0 for 60 minutes, and the optimum pH was about 6.0 when incubated at 35° C. for 60 minutes. The optimum temperature of the polypeptide having α-isomaltosylglucosaccharide-forming enzyme activity from a strain N75 was about 50° C. (in the absence of Ca^2+) and about 55° C. (in the presence of Ca^2+) when incubated at pH 6.0 for 60 minutes, and the optimum pH was about 6.0 when incubated at 35° C. for 60 minutes. The optimum temperature of the polypeptide having α-isomaltosylglucosaccharide-forming enzyme activity from a strain A19 was about 60° C. (in the absence of Ca^2+) and about 65° C. (in the presence of Ca^2+) when incubated at pH 8.4 for 60 min, and the optimum pH was about 8.4 when incubated at 35° C. for 60 minutes.

[4] = Thermal stability and pH stability (residual enzyme activity); assay type: physicochemical; conditions: 20 mM acetate buffer pH 6.0, 60 minutes
Experimental: The thermal stability of the polypeptide having α-isomaltosylglucosaccharide-forming enzyme activity was determined by incubating the testing polypeptide solution in 20 mM acetate buffer, pH6.0 (in the case of the polypeptide from a strain A19, 20 m M Glycine-NaOH buffer, pH 8.0) at prescribed temperatures for 60 minutes in the presence or absence of 1 mM Ca^2+, cooling with water the resulting polypeptide solutions, and assaying the residual enzyme activity of each solution. The pH stability of the polypeptide having α-isomaltosylglucosaccharide-forming enzyme activity was determined by keeping the testing polypeptide solutions in 50 mM buffer having prescribed pHs at 4° C. for 24 hours, adjusting the pH of each solution to 6.0 (in the case of the polypeptide from a strain A19, pH 8.0), and assaying the residual enzyme activity of each solution. […] The thermal stability of the polypeptide having α-isomaltosylglucosaccharide-forming enzyme activity from a strain C11 was up to about 40° C. (in the absence of Ca^2+) and about 45° C. (in the presence of Ca^2+), and pH stability of about 5.0 to about 10.0. The thermal stability of the polypeptide having α-isomaltosylglucosaccharide-forming enzyme activity from a strain N75 was up to about 45° C. (in the absence of Ca^2+) and about 50° C. (in the presence of Ca^2+), and pH stability of about 5.0 to about 9.0. The thermal stability of the polypeptide having α-isomaltosylglucosaccharide-forming enzyme activity from a strain A19 was up to about 55° C. (in the absence of Ca^2+) and about 60° C. (in the presence of Ca^2+), and pH stability of about 5.0 to about 9.0.

B1: Enzyme of Strain C11: purified polypeptide having α-isomaltosylglucosaccharide-forming enzyme activity from Bacillus globisporus C11 (Experiment 1-3); contains SEQ ID NO: 1 (protein)
chain: YVSSLGNLISSSVTGDTLTLTVDNGAEPSDDLLIVQAVQNGILKVDYRPNSITPSAKTPMLDPNKTWSAVGATINTTANPMTITTSNMKIEITKNPVRMTVKKADGTTLFWEPSGGGVFSDGVRFLHATGDNMYGIRSFNAFDSGGDLLRNSSNHAAHAGEQGDSGGPLIWSTAGYGLLVDSDGGYPYTDSTTGQMEFYYGGTPPEGRRYAKQNVEYYIMLGTPKEIMTDVGEITGKPPMLPKWSLGFMNFEWDTNQTEFTNNVDTYRAKNIPIDAYAFDYDWKKYGETNYGEFAWNTTNFPSASTTSLKSTMDAKGIKMIGITKPRIVTKDASANVTTQGTDATNGGYFYPGHNEYQDYFIPVTVRSIDPYNANERAWFWNHSTDALNKGIVGWWNDETDKVSSGGALYWFGNFTTGHMSQTMYEGGRAYTSGAQRVWQTARTFYPGAQRYATTLWSGDIGIQYNKGERINWAAGMQEQRAVMLSSVNNGQVKWGMDTGGFNQQDGTTNNPNPDLYARWMQFSALTPVFRVHGNNHQQRQPWYFGSTAEEASKEAIQLRYSLIPYMYAYERSAYENGNGLVRPLMQAYPTDAAVKNYTDAWMFGDWLLAAPVVDKQQTSKDIYLPSGSWIDYARGNAITGGQTIRYSVNPDTLTDMPLFIKKGAIIPTQKVQDYVGQASVTSVDVDVFPDTTQSSFTYYDDDGASYNYESGTYFKQNMTAQDNGSGSLSFTLGAKSGSYTPALQSYIVKLHGSAGTSVTNNSAAMTSYASLEALKAAAGEGWATGKDIYGDVTYVKVTAGTASSKSIAVTGVAAVSATTSQYEAEDASLSGNSVAAKASINTNHTGYTGTGFVDGLGNDGAGVTFYPKVKTGGDYNVSLRYANASGTAKSVSIFVNGKRVKSTSLANLANWDTWSTQSETLPLTAGVNVVTYKYYSDAGDTGNVNIDNITVPFAPIIGKYEAESAELSGGSSLNTNHWYYSGTAFVDGLSAVGAQVKYNVNVPSAGSYQVALRYANGSAATKTLSTYINGAKLGQTSFTSPGTNWNVWQDNVQTVTLNAGANTIAFKYDAADSGNINVDRLLLSTSAAGTPVSEQNLLDNPGFERDTSQTNNWIEWHPGTQAVAFGVDSGSTTNPPESPWSGDKRAYFFAAGAYQQSIHQTISVPVNNVKYKFEAWVRMKNTTPTTARAEIQNYGGSAIYANISNSGVWKYISVSDIMVTNGQIDVGFYVDSPGGTTLHIDDVRVTKQ
modifications: Bacillus globisporus C11
- Percentage of forming reducing power ([1]; reaction time 0 hour): 0.0%
- Percentage of forming reducing power ([1]; reaction time 1 hour): 0.1%
- Percentage of forming reducing power ([1]; reaction time 2 hours): 0.0%
- Percentage of forming reducing power ([1]; reaction time 4 hours): 0.1%
- Percentage of forming reducing power ([1]; reaction time 8 hours): 0.0%
- Isoelectric point [2]: about 5.2±0.5
- Optimum temperature ([3]; in the absence of Ca2+): about 45 °C
- Optimum temperature ([3]; in the presence of 1 mM Ca2+): about 50 °C
- Optimum pH [3]: about 6.0
- Thermal stability ([4]; in the absence of Ca2+): up to 40 °C

B2: Enzyme of Strain N75: purified polypeptide having α-isomaltosylglucosaccharide-forming enzyme activity from Bacillus globisporus N75 (Experiment 2-3); contains SEQ ID NO: 2 (protein)
chain: HVSALGNLLSSAVTGDTLTLTIDNGAEPNDDILVLQAVQNGILKVDYRPNGVAPSADTPMLDPNKTWPSIGAVINTASNPMTITTPAMKIEIAKNPVRLTVKKPDGTALLWEPPTGGVFSDGVRFLHGTGDNMYGIRSFNAFDSGGDLLRNSSTQAARAGDQGNSGGPLIWSTAGYGVLVDSDGGYPFTDEATGKLEFYYGGTPPEGRRYTKQDVEYYIMLGTPKEIMSGVGEITGKPPMLPKWSLGFMNFEWDLNEAELKNHVDTYRAKNIPIDGYAIDFDWKKYGENNYGEFAWNTANFPSAATTALKSQMDAKGIKMIGITKPRIATKDFSNNPTVQGTDAASGGYFYPGHSEYKDYFIPVFVRSIDPYNPAARSWFWNHSKDAFDKGIVGWWNDETDAVSSGGASYWFGNFTTGHMSQALYEGQRAYTSNAQRVWQTARTFYPGAQRYATTLWSGDIGIQYTKGERINWAAGMQEQRAVMLSSINNGQVKWGMDTGGFNQQDGTTNNPNPDLYARWMQFSALTPVFRVHGNNHQQRQPWYYGSTAEEASKEALQLRYSLIPYMYAYERSAYENGNGLVRPLMQEYPADANAKNYLDAWMFGDWLLAAPVVEKQQTSKEIYLPAGTWIDYNRGTVLTGGQKISYAVNPDTLTDIPLFIKKGAIIPSQKVQDYVGQAPVQTVDVDVFPNTAQSSFTYYDDDGSSYNYESGAYFKQLMTAQDNGSGALSFTLGAKTGTYSPALQSYIVKLHGAAGASVTSNGAALASYASLQALKASASEGWAKGKDIYGDVTYVKLSAGAAAAKAIAVTGNSPVSVADVQYEAEEASLSGNTTATKATVNTNHAGYTGSGFVDGLSNPGAAVTFYPKVKTGGDYNVSLRYANSTGAAKSVSIFVNGKRVKSTSLANLPNWDTWGTQAETLPLTAGTNVVTYKFYSDAGDTGSVNLDNITVPFAPAIGKYEAESAELSGGSTVNQNHWFYSGTAFVDGLTAPGAQVKYTVNAPAAGSYQIALRYANGTGAAKTLSTYVNGTKLGQTAFASPGGNWNVWQDSVQTVALAAGTNTIAFKYDAGDSGSGSVNLDRLLLSAAAPGVPVSEQNLLDNGGFERDPSQSSNWTEWHPASQAIAYGIDSGSGMNPPESPWAGDKRAYFYAAGPYQQSIHQTVSVPVNNAKYKFEAWVLLKNTTPTTARVEIQNYGGSPIFTNISKDGVWKYISVSDIQVTNGQIDIGFYVDSPGGTTLHIDDVRVTKQ
modifications: Bacillus globisporus N75
- Percentage of forming reducing power ([1]; reaction time 0 hour): 0.0%
- Percentage of forming reducing power ([1]; reaction time 1 hour): 0.1%
- Percentage of forming reducing power ([1]; reaction time 2 hours): 0.0%
- Percentage of forming reducing power ([1]; reaction time 4 hours): 0.0%
- Percentage of forming reducing power ([1]; reaction time 8 hours): 0.1%
- Isoelectric point [2]: about 7.3±0.5
- Optimum temperature ([3]; in the absence of Ca2+): about 50 °C
- Optimum temperature ([3]; in the presence of 1 mM Ca2+): about 55 °C
- Optimum pH [3]: about 6.0
- Thermal stability ([4]; in the presence of 1 mM Ca2+): ≤ 50 °C
